This is an account of results in US20070258988A1.

Where only a bound is given, the exact number is not on record here.

Test [1] concerns the target hMOR-1B2 (human) (UniProt P35372). Nature of the test: competition against [3H]DAMGO (~1 nM), membranes of stable CHO transfectants.
Test [2] addresses rMOR-1 (no Exon 4) (rat) (UniProt P33535). Nature of the test: cell-based or functional assay.
Test [3] deals with rMOR-1 (rat) (UniProt P33535). Nature of the test: cell-based or functional assay.
Test [4] has as its target rMOR-1A (rat). Nature of the test: cell-based or functional assay.
Test [5] addresses rMOR-1C1 (rat). Nature of the test: cell-based or functional assay.
Test [6] addresses rMOR-1D (rat). Nature of the test: cell-based or functional assay.
In test [7] the target is rMOR-1 (rat) (UniProt P33535). Nature of the test: competition against [3H]DAMGO (~1 nM), membranes of stable CHO transfectants.
Test [8] has as its target hMOR-1 (exons 1-3) (human) (UniProt P35372). Put plainly: cell-based or functional assay.
Test [9] concerns the target hMOR-1 (human) (UniProt P35372). Put plainly: cell-based or functional assay.
The target in test [10] is hMOR-1A (human). Put plainly: cell-based or functional assay.
The target in test [11] is hMOR-1B1 (human) (UniProt P35372). Nature of the test: cell-based or functional assay.
Test [12] has as its target hMOR-1B2 (human) (UniProt P35372). Nature of the test: cell-based or functional assay.
Test [13] has as its target hMOR-1B3 (human) (UniProt P35372). Put plainly: cell-based or functional assay.
Test [14] addresses hMOR-1B4 (human) (UniProt P35372). Put plainly: cell-based or functional assay.
Test [15] addresses hMOR-1B5 (human) (UniProt P35372). Nature of the test: cell-based or functional assay.
Test [16] concerns the target hMOR-1Y (human) (UniProt P35372). Put plainly: cell-based or functional assay.
The target in test [17] is rMOR-1 (no Exon 4) (rat) (UniProt P33535). Nature of the test: [3H]DAMGO saturation binding, membranes of stable CHO transfectants.
The target of test [18] is rMOR-1 (rat) (UniProt P33535). Described as above.
Test [19] concerns the target rMOR-1A (rat). The description is as above.
The target of test [20] is rMOR-1C1 (rat). The test is described as above.
Test [21] concerns the target rMOR-1D (rat). Described as above.
The target in test [22] is hMOR-1 (human) (UniProt P35372). Put plainly: competition against [3H]DAMGO (~1 nM), membranes of stable CHO transfectants.
Test [23] deals with hMOR-1B1 (human) (UniProt P35372). The test is described as above.
Test [24] addresses rMOR-1A (rat). The description is as above.
Test [25] concerns the target rMOR-1C1 (rat). The test is described as above.
The target in test [26] is rMOR-1D (rat). The test is described as above.
Test [27] deals with hMOR-1 (exons 1-3) (human) (UniProt P35372). The description is as above.
Test [28] addresses hMOR-1A (human). The test is described as above.
Test [29] has as its target hMOR-1B3 (human) (UniProt P35372). The description is as above.
Test [30] addresses hMOR-1B4 (human) (UniProt P35372). The test is described as above.
Test [31] addresses hMOR-1B5 (human) (UniProt P35372). The test is described as above.
The target in test [32] is hMOR-1Y (human) (UniProt P35372). The test is described as above.
Test [33] deals with rMOR-1 (no Exon 4) (rat) (UniProt P33535). Described as above.

For DADLE (peptide), the Ki (in general, a dissociation constant, usually derived from enzyme kinetics or from competition with a known ligand) in test [1] is 10 nM.
Regarding Endomorphin 1 (peptide), the Max Stim (%) is 189% in test [2]; 320% in test [3]; 205% in test [4]; 377% in [5]; 145% in test [6]. In test [6], this substance gave an EC50 (nM), stimulation of [35S]GTPγS binding of 100 nM.
Endomorphin 2 (peptide) came in with a Ki in [7] of 8 nM. In other words, the single-digit nanomolar range.
“[D-Ala^2,MePhe^4,Gly(ol)^5]enkephalin (DAMGO) (peptide)”: the Max Inhib (%) in [8] stood at 74%; in [9], 76%; in [10], 82%; in test [11], 57%; in [12] it was 90%; in [13], 73%. For the same substance, the values for the Max Inhib (%) in [14], in test [15] and in test [16] were 65%, 83% and 91%, respectively. Besides, the EC50 (nM), stimulation of [35S]GTPγS binding came to 86 nM in test [2]; 12 nM in test [3]; 13 nM in test [4]; 4 nM in test [5]; 125 nM in [6]. For the same substance, the Max Stim (%) was determined as 196% in [2]; 233% in test [3]; 176% in [4]; 233% in test [5]; 113% in test [6]. Also, the Kd (commonly the concentration at which binding is half-saturated) amounted to 4.5 nM in test [17]; 2.8 nM in test [18]; 2.5 nM in test [19]; 4.8 nM in test [20]; 4.7 nM in test [21]. Also, the Ki in test [22] amounted to 2 nM; in test [23], 1.2 nM; in [7], 3.3 nM; in [24], 6 nM; in test [25], 4.5 nM; in test [26] it was 4.7 nM.
For the substance “[D-Pen^2, D-Pen^5]enkephalin (DPDPE) (peptide)”, the Ki in [27], in test [22], in test [28], in test [23], in [1] and in [29] was > 500 nM in each case. Besides, the Ki in test [30], in test [31] and in test [32] was > 500 nM in each case.
On to “[D-Ser^2, Leu^5]enkephalin-Thr^6 (DSLET) (peptide)”, for which the EC50 (nM), stimulation of [35S]GTPγS binding came out at 690 nM in test [2]; 76 nM in test [3]; 127 nM in test [4]; 253 nM in [5]; 540 nM in test [6]. Besides, the Max Stim (%) in test [2] came to 226%; in [3], 251%; in [4], 206%; in test [5], 312%; in test [6], 187%. The Ki amounted to 19.1 nM in test [22]; 19.7 nM in test [28]; 13.9 nM in [23]; 34.4 nM in test [1]; 16.4 nM in [29]; 22.3 nM in test [30]. Besides, the Ki in test [32] is 15.4 nM; in [33], 24.2 nM; in test [7] it was 30.9 nM; in [24], 44.5 nM; in test [25], 45 nM; in test [26], 27.3 nM.
